Laboratory results published in patent US20200315149.

How the values were obtained:
[1] = biological target: T1, full-length coagulation factor XII purified from human plasma, P00748
T1 chain: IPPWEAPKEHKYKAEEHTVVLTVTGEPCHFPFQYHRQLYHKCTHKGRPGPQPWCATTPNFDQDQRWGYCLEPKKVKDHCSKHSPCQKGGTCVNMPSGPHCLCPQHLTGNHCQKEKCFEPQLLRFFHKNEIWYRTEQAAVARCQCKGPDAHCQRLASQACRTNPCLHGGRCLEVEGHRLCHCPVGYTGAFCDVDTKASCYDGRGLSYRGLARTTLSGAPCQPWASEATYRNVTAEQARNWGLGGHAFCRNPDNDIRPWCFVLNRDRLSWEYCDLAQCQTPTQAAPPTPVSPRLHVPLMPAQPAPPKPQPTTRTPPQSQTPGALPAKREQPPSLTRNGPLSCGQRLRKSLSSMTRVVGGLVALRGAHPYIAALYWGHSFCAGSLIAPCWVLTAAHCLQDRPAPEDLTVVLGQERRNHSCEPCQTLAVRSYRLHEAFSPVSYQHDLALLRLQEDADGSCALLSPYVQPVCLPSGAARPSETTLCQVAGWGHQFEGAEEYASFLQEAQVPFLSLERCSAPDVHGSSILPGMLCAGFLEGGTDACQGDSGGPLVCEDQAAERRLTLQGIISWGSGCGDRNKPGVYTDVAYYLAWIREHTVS

[2] = biological target: prekallikrein purified from human plasma, P03952
Chain of prekallikrein purified from human plasma, P03952 (P03952 20-638): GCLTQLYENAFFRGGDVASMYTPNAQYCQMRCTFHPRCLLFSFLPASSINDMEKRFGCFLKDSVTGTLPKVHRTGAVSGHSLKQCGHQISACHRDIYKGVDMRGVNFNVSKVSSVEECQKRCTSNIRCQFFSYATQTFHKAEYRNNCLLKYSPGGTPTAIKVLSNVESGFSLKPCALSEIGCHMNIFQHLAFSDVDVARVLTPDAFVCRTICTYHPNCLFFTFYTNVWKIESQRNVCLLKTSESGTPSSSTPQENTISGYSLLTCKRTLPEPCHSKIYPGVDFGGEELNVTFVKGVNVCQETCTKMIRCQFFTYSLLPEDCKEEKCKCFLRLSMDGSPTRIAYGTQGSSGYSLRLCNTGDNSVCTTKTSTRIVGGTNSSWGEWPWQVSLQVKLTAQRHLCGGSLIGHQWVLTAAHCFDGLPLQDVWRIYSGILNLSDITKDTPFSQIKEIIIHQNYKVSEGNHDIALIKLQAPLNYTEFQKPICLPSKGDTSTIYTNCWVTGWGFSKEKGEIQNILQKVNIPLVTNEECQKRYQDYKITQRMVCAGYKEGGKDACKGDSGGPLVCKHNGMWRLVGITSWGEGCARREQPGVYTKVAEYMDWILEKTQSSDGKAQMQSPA

[3] = biological target: recombinant human pro-HGF, P14210
Chain of recombinant human pro-HGF, P14210 (P14210 32-728): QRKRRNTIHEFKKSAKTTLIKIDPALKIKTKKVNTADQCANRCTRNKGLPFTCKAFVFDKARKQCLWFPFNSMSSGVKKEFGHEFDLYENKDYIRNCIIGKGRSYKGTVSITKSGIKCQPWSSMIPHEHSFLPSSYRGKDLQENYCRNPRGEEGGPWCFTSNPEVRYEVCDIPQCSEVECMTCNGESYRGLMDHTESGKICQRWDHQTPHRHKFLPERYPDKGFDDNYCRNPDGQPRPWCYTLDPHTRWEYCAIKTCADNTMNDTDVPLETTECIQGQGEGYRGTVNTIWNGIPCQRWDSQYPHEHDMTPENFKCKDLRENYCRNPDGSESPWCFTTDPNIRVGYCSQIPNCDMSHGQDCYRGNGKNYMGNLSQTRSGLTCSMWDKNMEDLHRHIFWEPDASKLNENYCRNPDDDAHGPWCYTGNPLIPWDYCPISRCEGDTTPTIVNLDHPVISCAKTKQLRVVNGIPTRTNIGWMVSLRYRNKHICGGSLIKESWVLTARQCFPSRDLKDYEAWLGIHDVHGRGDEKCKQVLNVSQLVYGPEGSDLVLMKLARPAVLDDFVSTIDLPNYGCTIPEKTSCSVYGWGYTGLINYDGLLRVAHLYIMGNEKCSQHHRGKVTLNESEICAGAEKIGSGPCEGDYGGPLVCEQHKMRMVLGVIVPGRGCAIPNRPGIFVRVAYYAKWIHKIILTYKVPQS

B1: cathepsin K (protein)
chain: APDSVDYRKKGYVTPVKNQGQCGSCWAFSSVGALEGQLKKKTGKLLNLSPQNLVDCVSENDGCGGGYMTNAFQYVQKNRGIDSEDAYPYVGQEESCMYNPTGKAAKCRGYREIPEGNEKALKRAVARVGPVSVAIDASLTSFQFYSKGVYYDESCNSDNLNHAVLAVGYGIQKGNKHWIIKNSWGENWGNKGYILMARNKNNACGIANLASFPKM
cleavage of FXII (1.25 uM) by cathepsin K (100 nM), non-reducing SDS-PAGE with Coomassie staining [1]: incubation of full-length FXII with cathepsin K generated stable FXII fragments with sizes supporting cleavage between L296 and M297

B2: kallikrein-activated FXII297-596 (protein)
chain: MPAQPAPPKPQPTTRTPPQSQTPGALPAKREQPPSLTRNGPLSCGQRLRKSLSSMTRVVGGLVALRGAHPYIAALYWGHSFCAGSLIAPCWVLTAAHCLQDRPAPEDLTVVLGQERRNHSCEPCQTLAVRSYRLHEAFSPVSYQHDLALLRLQEDADGSCALLSPYVQPVCLPSGAARPSETTLCQVAGWGHQFEGAEEYASFLQEAQVPFLSLERCSAPDVHGSSILPGMLCAGFLEGGTDACQGDSGGPLVCEDQAAERRLTLQGIISWGSGCGDRNKPGVYTDVAYYLAWIREHTVS
cleavage of prekallikrein (200 nM) by activated FXII297-596 (225 nM), western blot for kallikrein heavy chain [2]: activated FXII297-596 converted prekallikrein to kallikrein as seen through the generation of kallikrein heavy chain | cleavage of pro-HGF (25 ug/mL) by activated FXII297-596 (225 nM), western blot with anti-HGF [3]: kallikrein-activated FXII297-596 cleaved pro-HGF to the active two-chain form

B3: recombinant human FXII297-596 (protein)
chain: MPAQPAPPKPQPTTRTPPQSQTPGALPAKREQPPSLTRNGPLSCGQRLRKSLSSMTRVVGGLVALRGAHPYIAALYWGHSFCAGSLIAPCWVLTAAHCLQDRPAPEDLTVVLGQERRNHSCEPCQTLAVRSYRLHEAFSPVSYQHDLALLRLQEDADGSCALLSPYVQPVCLPSGAARPSETTLCQVAGWGHQFEGAEEYASFLQEAQVPFLSLERCSAPDVHGSSILPGMLCAGFLEGGTDACQGDSGGPLVCEDQAAERRLTLQGIISWGSGCGDRNKPGVYTDVAYYLAWIREHTVS
cleavage of prekallikrein, western blot [2]: no cleavage of prekallikrein was observed with non-activated FXII297-596

B4: kallikrein-activated FXII (protein)
chain: IPPWEAPKEHKYKAEEHTVVLTVTGEPCHFPFQYHRQLYHKCTHKGRPGPQPWCATTPNFDQDQRWGYCLEPKKVKDHCSKHSPCQKGGTCVNMPSGPHCLCPQHLTGNHCQKEKCFEPQLLRFFHKNEIWYRTEQAAVARCQCKGPDAHCQRLASQACRTNPCLHGGRCLEVEGHRLCHCPVGYTGAFCDVDTKASCYDGRGLSYRGLARTTLSGAPCQPWASEATYRNVTAEQARNWGLGGHAFCRNPDNDIRPWCFVLNRDRLSWEYCDLAQCQTPTQAAPPTPVSPRLHVPLMPAQPAPPKPQPTTRTPPQSQTPGALPAKREQPPSLTRNGPLSCGQRLRKSLSSMTRVVGGLVALRGAHPYIAALYWGHSFCAGSLIAPCWVLTAAHCLQDRPAPEDLTVVLGQERRNHSCEPCQTLAVRSYRLHEAFSPVSYQHDLALLRLQEDADGSCALLSPYVQPVCLPSGAARPSETTLCQVAGWGHQFEGAEEYASFLQEAQVPFLSLERCSAPDVHGSSILPGMLCAGFLEGGTDACQGDSGGPLVCEDQAAERRLTLQGIISWGSGCGDRNKPGVYTDVAYYLAWIREHTVS
cleavage of pro-HGF (25 ug/mL) by kallikrein-activated FXII (50 nM), western blot [3]: Pro-HGF was cleaved by kallikrein-activated FXII297-596 and kallikrein-activated FXII (arrows), but not by inactivated kallikrein alone

B5: recombinant human hepatocyte growth factor activator (protein)
chain: QPGGNRTESPEPNATATPAIPTILVTSVTSETPATSAPEAEGPQSGGLPPPPRAVPSSSSPQAQALTEDGRPCRFPFRYGGRMLHACTSEGSAHRKWCATTHNYDRDRAWGYCVEATPPPGGPAALDPCASGPCLNGGSCSNTQDPQSYHCSCPRAFTGKDCGTEKCFDETRYEYLEGGDRWARVRQGHVEQCECFGGRTWCEGTRHTACLSSPCLNGGTCHLIVATGTTVCACPPGFAGRLCNIEPDERCFLGNGTGYRGVASTSASGLSCLAWNSDLLYQELHVDSVGAAALLGLGPHAYCRNPDNDERPWCYVVKDSALSWEYCRLEACESLTRVQLSPDLLATLPEPASPGRQACGRRHKKRTFLRPRIIGGSSSLPGSHPWLAAIYIGDSFCAGSLVHTCWVVSAAHCFSHSPPRDSVSVVLGQHFFNRTTDVTQTFGIEKYIPYTLYSVFNPSDHDLVLIRLKKKGDRCATRSQFVQPICLPEPGSTFPAGHKCQIAGWGHLDENVSGYSSSLREALVPLVADHKCSSPEVYGADISPNMLCAGYFDCKSDACQGDSGGPLACEKNGVAYLYGIISWGDGCGRLHKPGVYTRVANYVDWINDRIRPPRRLVAPS
cleavage of pro-HGF, western blot [3]: We confirmed the ability of hepatocyte growth factor activator (HGFA) and βFXIIa to cleave pro-HGF

B6: βFXIIa (protein)
chain: NGPLSCGQRLRKSLSSMTRVVGGLVALRGAHPYIAALYWGHSFCAGSLIAPCWVLTAAHCLQDRPAPEDLTVVLGQERRNHSCEPCQTLAVRSYRLHEAFSPVSYQHDLALLRLQEDADGSCALLSPYVQPVCLPSGAARPSETTLCQVAGWGHQFEGAEEYASFLQEAQVPFLSLERCSAPDVHGSSILPGMLCAGFLEGGTDACQGDSGGPLVCEDQAAERRLTLQGIISWGSGCGDRNKPGVYTDVAYYLAWIREHTVS
cleavage of pro-HGF, western blot [3]: We confirmed the ability of hepatocyte growth factor activator (HGFA) and βFXIIa to cleave pro-HGF

B7: two-chain tissue plasminogen activator (protein)
chain: SYQVICRDEKTQMIYQQHQSWLRPVLRSNRVEYCWCNSGRAQCHSVPVKSCSEPRCFNGGTCQQALYFSDFVCQCPEGFAGKCCEIDTRATCYEDQGISYRGTWSTAESGAECTNWNSSALAQKPYSGRRPDAIRLGLGNHNYCRNPDRDSKPWCYVFKAGKYSSEFCSTPACSEGNSDCYFGNGSAYRGTHSLTESGASCLPWNSMILIGKVYTAQNPSAQALGLGKHNYCRNPDGDAKPWCHVLKNRRLTWEYCDVPSCSTCGLRQYSQPQFRIKGGLFADIASHPWQAAIFAKHRRSPGERFLCGGILISSCWILSAAHCFQERFPPHHLTVILGRTYRVVPGEEEQKFEVEKYIVHKEFDDDTYDNDIALLQLKSDSSRCAQESSVVRTVCLPPADLQLPDWTECELSGYGKHEALSPFYSERLKEAHVRLYPSSRCTSQHLLNRTVTDNMLCAGDTRSGGPQANLHDACQGDSGGPLVCLNDGRMTLVGIISWGLGCGQKDVPGVYTKVTNYLDWIRDNMRP
cleavage of pro-HGF, western blot [3]: other serine proteases found in the brain such as thrombin and tissue plasminogen activator did not convert pro-HGF to HGF
